Among the data in PMC7062800 are binding signal values, retold here.

Data set [1] deals with RdhK1 (CprK4) (Desulfitobacterium hafniense DCB-2). Description: EMSA. The note with it: no effector; EMSA: 100 ng DNA, 2 uM protein, 200 uM effector, 15 uL; buffer 100 mM Tris-HCl pH 8.5, 40% glycerol, 10 mM MgCl2, 500 mM NaCl, 5 mM EDTA, 10 mM DTT …. In general terms: In EMSA bound probe runs differently from free probe, usually more slowly.
Data set [2] addresses RdhK6 (CprK1) (Desulfitobacterium hafniense DCB-2) (UniProt Q18R04). Description: EMSA. Particulars: 200 uM Cl-OHPA; EMSA: 100 ng DNA, 2 uM protein, 200 uM effector, 15 uL; buffer 100 mM Tris-HCl pH 8.5, 40% glycerol, 10 mM MgCl2, 500 mM NaCl, 5 mM EDTA, 10 mM DTT ….

Consider “GAATTCTCAGGCGATGTAACCGCTTTCAAAGTTAATACACATTAATACTCTTAACAATGTGATAGCTATGATTGCACCG (double strand) [mgl-DB7]”, for which the binding signal in data set [1] worked out at 10 % DNA bound; in data set [2], 100 % DNA bound.

For the sequence “GAATTCTCAGGCGATGTAACCGCTTTCAAATTTAGTATACGCTAAATATCTTAACAATGTGATAGCTATGATTGCACCG (double strand) [mgl-DB8]”, the values for the binding signal in data set [1] and in data set [2] were 80 % DNA bound and 100 % DNA bound, respectively.
